One block for each binder: values may come before it.
Columns and labels:
[1] = biological target: T1, Sema-PSI (UniProt P08581 25-562); assay: ELISA, receptor in solid phase, MYC-tagged ligand in liquid phase, anti-MYC detection
T1 construct: range 25-562; also called Sema-PSI FLAG.his; SP
Procedure: All engineered receptors and factors were collected from the conditioned medium of lentiviral vector-transduced […] human melanoma cells in the absence of serum. Factor purification was performed by immobilized-metal affinity chromatography as previously described in Michieli P. et al. (2002) Nat Biotechnol. 20(5), 488-495. Conversion of pro-HGF into active HGF was performed by incubating purified pro-HGF (maximal concentration 100 ng/μl) with 2-10% FBS (Sigma, St. Louis, Mo.) at 37° C. for 24 hours. Factor conversion was analyzed by Western blotting using anti-HGF antibodies (R&D Systems, Minneapolis, Minn.). […] Binding of engineered ligands to soluble receptors was measured by ELISA using FLAG-tagged soluble receptors in solid phase and MYC-tagged engineered ligands in liquid phase. […] Binding data were analyzed and fit using Prism software (Graph Pad Software, San Diego, Calif.).
(§1) To determine the affinity of each Met module for pro-HGF, HGF-α, HGF NK1 and HGF-β and to compare it with that for active HGF, engineered receptors were immobilized in solid phase and exposed to increasing concentrations of MYC-tagged ligands. […] Non-specific binding was determined using the kringle-containing protein angiostatin (AS) also tagged with a MYC epitope—in liquid phase. […] Binding of HGF-β to decoy Met (or to any other Met domain) was too low to be detected in this kind of assay. […]

[2] = biological target: T2, Decoy Met (UniProt P08581 25-932); assay: ELISA, Decoy Met in solid phase, MYC-tagged ligand in liquid phase, anti-MYC detection
T2 construct: range 25-932; Soluble FLAG- and His-tagged receptor, purified from conditioned medium of transduced cells; also called decoy met FLAG.his; DM
Procedure: (§2) Factor purification was performed by immobilized-metal affinity chromatography as previously described in Michieli P. et al. (2002) Nat Biotechnol. 20(5), 488-495. Conversion of pro-HGF into active HGF was performed by incubating purified pro-HGF (maximal concentration 100 ng/μl) with 2-10% FBS (Sigma, St. Louis, Mo.) at 37° C. for 24 hours. Factor conversion was analyzed by Western blotting using anti-HGF antibodies (R&D Systems, Minneapolis, Minn.). Uncleavable HGF subjected to the same incubation with FBS was used as pro-HGF in all assays that compared active HGF with unprocessed HGF. Binding of engineered ligands to soluble receptors was measured by ELISA using FLAG-tagged soluble receptors in solid phase and MYC-tagged engineered ligands in liquid phase. […] Binding data were analyzed and fit using Prism software (Graph Pad Software, San Diego, Calif.).
as §1

[3] = biological target: T3, IPT (UniProt P08581 563-932); assay: ELISA, IPT in solid phase, MYC-tagged ligand in liquid phase, anti-MYC detection
T3 construct: range 563-932; also called IPT FLAG.his; soluble IPT
Procedure: as §2, §1

binding result [1]: no binding
fold reduced affinity compared to active HGF [2]: 4 fold
B1: HGF-α (ligand)
chain: QRKRRNTIHEFKKSAKTTLIKIDPALKIKTKKVNTADQCANRCTRNKGLPFTCKAFVFDKARKQCLWFPFNSMSSGVKKEFGHEFDLYENKDYIRNCIIGKGRSYKGTVSITKSGIKCQPWSSMIPHEHSFLPSSYRGKDLQENYCRNPRGEEGGPWCFTSNPEVRYEVCDIPQCSEVECMTCNGESYRGLMDHTESGKICQRWDHQTPHRHKFLPERYPDKGFDDNYCRNPDGQPRPWCYTLDPHTRWEYCAIKTCADNTMNDTDVPLETTECIQGQGEGYRGTVNTIWNGIPCQRWDSQYPHEHDMTPENFKCKDLRENYCRNPDGSESPWCFTTDPNIRVGYCSQIPNCDMSHGQDCYRGNGKNYMGNLSQTRSGLTCSMWDKNMEDLHRHIFWEPDASKLNENYCRNPDDDAHGPWCYTGNPLIPWDYCPISRCEGDTEQKLISEEDLNHHHHHHH
notes: range 32-473; also called HGF α-chain; HGF-α MYC his

binding result [1]: no binding
fold reduced affinity compared to active HGF [2]: 10 fold
fold less tightly than active HGF [3]: 10 fold
B2: HGF NK1 (ligand)
chain: QRKRRNTIHEFKKSAKTTLIKIDPALKIKTKKVNTADQCANRCTRNKGLPFTCKAFVFDKARKQCLWFPFNSMSSGVKKEFGHEFDLYENKDYIRNCIIGKGRSYKGTVSITKSGIKCQPWSSMIPHEHSFLPSSYRGKDLQENYCRNPRGEEGGPWCFTSNPEVRYEVCDIPQEQKLISEEDLNHHHHHHH
notes: range 32-205; also called HGF-NK1 MYC his; monomeric NK1

From patent US20090298079A1 (METHERESIS TRANSLATIONAL RESEARCH, published 2009)
